Data as given in article PMC10325903, “Prediction of cooperative homeodomain DNA binding sites from high-throughput-SELEX data”.

What was measured:
Bsx HD fragment = Bsx HD fragment (UniProt Q810B3 84-193); experiment: EMSA; EMSA, 34 nM IRDye700 probe, room temperature 20 min, 4% polyacrylamide gel 150 V 2 h; binding buffer as in cited ref 35 (not given); conditions: protein: recombinant; tags: N-terminal 6xHis (pET-14b or pET-14P; may be cleaved); chain copies: 2; label: 5' IRDye700 on bottom strand; blunt
Barx1 HD fragment = molecular target: T1, Barx1 HD fragment (UniProt Q9ER42 95-221); experiment: as above; conditions: protein: recombinant; tags: N-terminal 6xHis (pET-14b or pET-14P; may be cleaved); chain copies: 2; label: 5' IRDye700 on bottom strand; blunt
T1 sequence: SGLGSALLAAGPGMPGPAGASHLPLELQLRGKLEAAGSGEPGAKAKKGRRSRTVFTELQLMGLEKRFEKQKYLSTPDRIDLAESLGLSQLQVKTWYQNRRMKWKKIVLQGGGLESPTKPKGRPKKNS

En1 HD fragment = molecular target: T2, En1 HD fragment (UniProt P09065 282-401); experiment: as above; conditions: protein: recombinant; tags: N-terminal 6xHis (pET-14b or pET-14P; may be cleaved); label: 5' IRDye700 on bottom strand; blunt
T2 sequence: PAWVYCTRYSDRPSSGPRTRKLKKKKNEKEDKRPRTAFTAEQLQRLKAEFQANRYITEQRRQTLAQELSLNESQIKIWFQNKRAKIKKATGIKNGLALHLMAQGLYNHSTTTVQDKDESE

Arx HD fragment = Arx HD fragment (UniProt O35085 292-420); experiment: as above; conditions: protein: recombinant; tags: N-terminal 6xHis (pET-14b or pET-14P; may be cleaved); chain copies: 2; label: 5' IRDye700 on bottom strand; blunt
Barhl2 HD fragment = Barhl2 HD fragment (UniProt Q8VIB5 190-316); experiment: as above; conditions: protein: recombinant; tags: N-terminal 6xHis (pET-14b or pET-14P; may be cleaved); label: 5' IRDye700 on bottom strand; blunt
Gsx2 HD fragment = Gsx2 HD fragment (UniProt P31316 167-305); experiment: EMSA; 100 and 400 nM protein; EMSA, 34 nM IRDye700 probe, room temperature 20 min, 4% polyacrylamide gel 150 V 2 h; binding buffer as in cited ref 35 (not given); conditions: protein: recombinant; tags: N-terminal 6xHis (pET-14b or pET-14P; may be cleaved); chain copies: 2; label: 5' IRDye700 on bottom strand; blunt
Dlx2 HD fragment = Dlx2 HD fragment (UniProt P40764 137-229); experiment: EMSA; 20 and 80 nM protein; monomer; EMSA, 34 nM IRDye700 probe, room temperature 20 min, 4% polyacrylamide gel 150 V 2 h; binding buffer as in cited ref 35 (not given); conditions: protein: recombinant; tags: N-terminal 6xHis (pET-14b or pET-14P; may be cleaved); label: 5' IRDye700 on bottom strand; blunt
Sequence of Dlx2 HD fragment (P40764 137-229): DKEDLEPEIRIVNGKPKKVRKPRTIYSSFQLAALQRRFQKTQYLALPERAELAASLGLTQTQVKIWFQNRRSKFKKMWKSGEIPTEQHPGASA

Sequence of Arx HD fragment (O35085 292-420): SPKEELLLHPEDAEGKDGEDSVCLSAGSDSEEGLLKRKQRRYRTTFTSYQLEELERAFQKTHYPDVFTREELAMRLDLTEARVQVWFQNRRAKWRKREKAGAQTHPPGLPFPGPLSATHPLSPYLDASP
Sequence of Barhl2 HD fragment (Q8VIB5 190-316): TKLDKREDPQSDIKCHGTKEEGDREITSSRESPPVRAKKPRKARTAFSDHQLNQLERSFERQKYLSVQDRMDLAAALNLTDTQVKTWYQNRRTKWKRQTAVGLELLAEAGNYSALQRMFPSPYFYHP
Sequence of Bsx HD fragment (Q810B3 84-193): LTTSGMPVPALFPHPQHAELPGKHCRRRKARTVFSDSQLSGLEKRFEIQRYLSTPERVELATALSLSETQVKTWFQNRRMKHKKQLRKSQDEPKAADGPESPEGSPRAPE
Sequence of Gsx2 HD fragment (P31316 167-305): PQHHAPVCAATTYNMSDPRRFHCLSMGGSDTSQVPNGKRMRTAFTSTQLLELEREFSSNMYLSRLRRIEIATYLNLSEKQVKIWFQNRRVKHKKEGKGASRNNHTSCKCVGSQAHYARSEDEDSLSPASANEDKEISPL

B1: Bsx_SELEX_1 (dsDNA)
DNA 1: TATGAAATCAATTATCTCATTAAGTTCGTAGTGCGGGCGTGGCT
DNA 2: AGCCACGCCCGCACTACGAACTTAATGAGATAATTGATTTCATA
For B1, the “cooperativity factor (tau)” value (Bsx HD fragment) was 9.8 ± 1 Tau cooperativity factor.

B2: Barx1_SELEX_2+1 (dsDNA)
DNA 1: TATTCGAAACAATTAAATAGACGATTACTGTAGTGCGGGCGTGGCT
DNA 2: AGCCACGCCCGCACTACAGTAATCGTCTATTTAATTGTTTCGAATA
B2 was tested, and the “cooperativity factor (tau)” value (Barx1 HD fragment) was 0.7 ± 0.2 Tau cooperativity factor.

B3: Barx1_SELEX_2 (dsDNA)
DNA 1: TATTCGAAACAATTAAATAACGATTACTGTAGTGCGGGCGTGGCT
DNA 2: AGCCACGCCCGCACTACAGTAATCGTTATTTAATTGTTTCGAATA
In the case of B3, the “cooperativity factor (tau)” value (Barx1 HD fragment) is reported as 4.4 ± 0.6 Tau cooperativity factor.

B4: Bsx_SELEX_1+1 (dsDNA)
DNA 1: TATGAAATCAATTATCGTCATTAAGTTCGTAGTGCGGGCGTGGCT
DNA 2: AGCCACGCCCGCACTACGAACTTAATGACGATAATTGATTTCATA
For B4, the “cooperativity factor (tau)” value (Bsx HD fragment) was 0.9 ± 0.3 Tau cooperativity factor.

B5: En1_SELEX_2 (dsDNA)
DNA 1: TGTAGGATAATTGGGTAATTAGTGCAGATAGTGCGGGCGTGGCT
DNA 2: AGCCACGCCCGCACTATCTGCACTAATTACCCAATTATCCTACA
In the case of B5, the “cooperativity factor (tau)” value (En1 HD fragment) is reported as 0.1 ± 0.1 Tau cooperativity factor.

B6: Arx_SELEX_1 (dsDNA)
DNA 1: TGCGTTGCTAATTGAATTAGCACACGTGCTAGTGCGGGCGTGGCT
DNA 2: AGCCACGCCCGCACTAGCACGTGTGCTAATTCAATTAGCAACGCA
B6 was tested, and the “cooperativity factor (tau)” value (Arx HD fragment) was 168 ± 50.7 Tau cooperativity factor.

B7: Barhl2_SELEX_1+1 (dsDNA)
DNA 1: TATTGTTGCTAAACGGTGGCGTTTAGCGTGTAGTGCGGGCGTGGCT
DNA 2: AGCCACGCCCGCACTACACGCTAAACGCCACCGTTTAGCAACAATA
B7 was tested, and the “cooperativity factor (tau)” value (Barhl2 HD fragment) was 6.4 ± 1.2 Tau cooperativity factor.

B8: Gsx2_SELEX_2 (dsDNA)
DNA 1: TCCAACAGTCATTAAACTCTCATTATCGTAGTGCGGGCGTGGCT
DNA 2: AGCCACGCCCGCACTACGATAATGAGAGTTTAATGACTGTTGGA
B8: binds (Gsx2 HD fragment).

B9: Barhl2_SELEX_1 (dsDNA)
DNA 1: TATTGTTGCTAAACGGTGCGTTTAGCGTGTAGTGCGGGCGTGGCT
DNA 2: AGCCACGCCCGCACTACACGCTAAACGCACCGTTTAGCAACAATA
B9 was tested, and the “cooperativity factor (tau)” value (Barhl2 HD fragment) was 5.4 ± 0.58 Tau cooperativity factor.

B10: Arx_SELEX_1+1 (dsDNA)
DNA 1: TGCGTTGCTAATTGGAATTAGCACACGTGCTAGTGCGGGCGTGGCT
DNA 2: AGCCACGCCCGCACTAGCACGTGTGCTAATTCCAATTAGCAACGCA
In the case of B10, the “cooperativity factor (tau)” value (Arx HD fragment) is reported as 36.4 ± 11.5 Tau cooperativity factor.

B11: Gsx2_SELEX_1 (dsDNA)
DNA 1: TCCAACAACAATTAAAAACATATTAACGTAGTGCGGGCGTGGCT
DNA 2: AGCCACGCCCGCACTACGTTAATATGTTTTTAATTGTTGTTGGA
B11: binds (Gsx2 HD fragment).

B12: Dlx2_SELEX_2 (dsDNA)
DNA 1: TTCATGCAATTACTGCTAATTGCCACTATAGTGCGGGCGTGGCT
DNA 2: AGCCACGCCCGCACTATAGTGGCAATTAGCAGTAATTGCATGAA
B12: binds (Dlx2 HD fragment).

B13: En1_SELEX_2+1 (dsDNA)
DNA 1: TGTAGGATAATTGGGGTAATTAGTGCAGATAGTGCGGGCGTGGCT
DNA 2: AGCCACGCCCGCACTATCTGCACTAATTACCCCAATTATCCTACA
For B13, the “cooperativity factor (tau)” value (En1 HD fragment) was 0.2 ± 0.1 Tau cooperativity factor.

B14: Dlx2_HOMER (dsDNA)
DNA 1: TTCATGGGTAATTAGGTGTTATTATAGTGCGGGCGTGGCT
DNA 2: AGCCACGCCCGCACTATAATAACACCTAATTACCCATGAA
B14: binds (Dlx2 HD fragment).
